These results are taken from the Immune Epitope Database (IEDB).

For orientation: Kd means the constant that tells how readily two partners part at equilibrium.

For one assay, the target named is HLA-B*51:01. Kind of assay: IEDB peptide-MHC binding, purified MHC/competitive/fluorescence; filed as Kd, often an IC50 or EC50 that approximates it; ≥ and ≤ were set here for values at or beyond the usual limits of such assays.
In assay [1] the target is HLA-B*07:02. The assay is described as above. Conditions: source organism: Escherichia coli str. K-12 substr. MG1655.
A further assay addresses HLA-A*03:01. Kind of assay: IEDB peptide-MHC binding, purified MHC/direct/fluorescence; filed as Kd, often an IC50 or EC50 that approximates it; ≥ and ≤ were set here for values at or beyond the usual limits of such assays.
The target of the next assay is HLA-A*02:11. Described as above.
The target in a further assay is HLA-A*68:02. The description is as above.
The next assay has as its target HLA-A*24:03. The description is as above.
The target of the next assay is HLA-A*02:19. The description is as above.
A further assay deals with HLA-A*02:12. Described as above.
The target in the next assay is HLA-A*02:03. The assay is described as above.
The target in a further assay is HLA-A*23:01. The description is as above. Conditions: source organism: Influenza A virus (A/ferret/Maryland/P10-UMD/2008(H9N2)).
In the next assay the target is HLA-A*02:16. Described as above.
Another assay addresses HLA-A*26:01. Kind of assay: IEDB peptide-MHC binding, purified MHC/competitive/fluorescence; filed as Kd, often an IC50 or EC50 that approximates it; ≥ and ≤ were set here for values at or beyond the usual limits of such assays.
Assay [2] has as its target HLA-B*46:01. The assay is described as above.
For assay [3], the target named is HLA-B*57:01. The description is as above.
Assay [4] deals with HLA-B*15:01. Described as above.
Assay [5] addresses HLA-A*02:01. Described as above.
The target in another assay is HLA-B*27:03. Described as above.
The target of assay [6] is HLA-A*69:01. The description is as above.
The target in assay [7] is HLA-B*39:01. The assay is described as above.
The target in a further assay is HLA-C*06:02. Kind of assay: IEDB peptide-MHC binding, purified MHC/direct/fluorescence; filed as Kd, often an IC50 or EC50 that approximates it; ≥ and ≤ were set here for values at or beyond the usual limits of such assays.
In assay [8] the target is HLA-B*07:02. The assay is described as above.
In the next assay the target is HLA-B*15:17. Kind of assay: IEDB peptide-MHC binding, purified MHC/competitive/fluorescence; filed as Kd, often an IC50 or EC50 that approximates it; ≥ and ≤ were set here for values at or beyond the usual limits of such assays.
Assay [9] concerns the target HLA-B*18:01. The description is as above. Conditions: source organism: Zaire ebolavirus.
The target of a further assay is HLA-A*01:01. In words: IEDB peptide-MHC binding, purified MHC/direct/fluorescence; filed as Kd, often an IC50 or EC50 that approximates it; ≥ and ≤ were set here for values at or beyond the usual limits of such assays.
Assay [10] has as its target HLA-B*46:01. The assay is described as above.
For another assay, the target named is HLA-B*58:01. The description is as above.
The next assay deals with HLA-B*48:01. The assay is described as above.
The next assay addresses HLA-B*44:02. Described as above.
The next assay addresses HLA-A*29:02. The description is as above.
Assay [11] has as its target HLA-B*57:01. The assay is described as above.
Assay [12] concerns the target HLA-B*15:01. The description is as above.
For assay [13], the target named is HLA-A*02:01. The assay is described as above.
The target of another assay is HLA-A*31:01. Described as above.
Another assay addresses HLA-B*27:05. The description is as above.
Assay [14] has as its target HLA-B*18:01. Described as above.
The target in assay [15] is HLA-A*69:01. Described as above.
Assay [16] deals with HLA-B*39:01. The description is as above.
In a further assay the target is HLA-A*11:01. The description is as above. Conditions: source organism: Mycobacterium avium 104.
In a further assay the target is HLA-B*40:01. Described as above. As to conditions: source organism: Mycobacterium avium 104.
Where [17] appears, read: source organism: Influenza A virus (A/ferret/Maryland/P10-UMD/2008(H9N2)).
Setting [18] is: source organism: Influenza A virus (A/Victoria/1968(H3N2)).
[19] abbreviates: source organism: Zaire ebolavirus.
[20] abbreviates: source organism: Orthohantavirus andesense.
The mark [21] stands for this setting: source organism: Mycobacterium avium 104.

Consider APTADVAKI, for which the dissociation constant Kd in the assay with HLA-B*51:01 (source organism: Escherichia coli str. K-12 substr. MG1655) is at least 20 µM; with HLA-B*07:02 [1] it was 0.868 µM.
In the case of NMDKAVKLY, the Kd in the assay with HLA-A*03:01 (setting [17]), in the assay with HLA-A*02:11 (setting [17]), with HLA-A*68:02 (setting [17]), with HLA-A*24:03 (setting [17]), in the assay with HLA-A*02:19 (setting [17]) and in the assay with HLA-A*02:12 (setting [17]) was at least 20 µM throughout. The dissociation constant (Kd) with HLA-A*02:03 (setting [17]), with HLA-A*23:01, with HLA-A*02:16 (setting [17]), with HLA-A*26:01 (setting [18]), in the assay with HLA-B*46:01 [2] (setting [18]) and in the assay with HLA-B*57:01 [3] (setting [18]) was at least 20 µM in each case. Moreover, the Kd in the assay with HLA-B*51:01 (setting [18]), in the assay with HLA-B*15:01 [4] (setting [18]), with HLA-A*02:01 [5] (setting [18]), with HLA-B*27:03 (setting [18]), in the assay with HLA-A*69:01 [6] (setting [18]) and in the assay with HLA-B*39:01 [7] (setting [18]) was at least 20 µM throughout.
In the assay with HLA-C*06:02 (source organism: Mycobacterium tuberculosis variant bovis BCG str. Pasteur 1173P2), RARLWPRSM had a Kd of 0.701 µM.
Consider TPSGKRLQI, for which the equilibrium dissociation constant (Kd) with HLA-A*03:01 (setting [19]), in the assay with HLA-A*02:11 (setting [19]), with HLA-A*68:02 (setting [19]), in the assay with HLA-A*02:19 (setting [19]), with HLA-A*02:12 (setting [19]) and in the assay with HLA-A*02:03 (setting [19]) was at least 20 µM throughout. The Kd is at least 20 µM in the assay with HLA-A*02:16 (setting [19]); 0.0356 µM with HLA-B*07:02 [8] (source organism: Sudan ebolavirus - Maleo (1979)); at least 20 µM with HLA-A*26:01 (setting [19]); at least 20 µM with HLA-B*46:01 [2] (setting [19]); at least 20 µM in the assay with HLA-B*57:01 [3] (setting [19]); at least 20 µM with HLA-B*51:01 (setting [19]). For the same sequence, the equilibrium dissociation constant (Kd) with HLA-B*15:17 (setting [19]), with HLA-B*15:01 [4] (setting [19]), with HLA-A*02:01 [5] (setting [19]), in the assay with HLA-B*27:03 (setting [19]), with HLA-B*18:01 [9] and with HLA-A*69:01 [6] (setting [19]) was at least 20 µM throughout. The sequence further returned a dissociation constant (Kd) with HLA-B*39:01 [7] (setting [19]) of at least 20 µM.
As to TRDHVNLVL, the equilibrium dissociation constant (Kd) with HLA-A*01:01 (setting [20]), in the assay with HLA-A*03:01 (setting [20]), with HLA-B*46:01 [10] (setting [20]), in the assay with HLA-B*58:01 (setting [20]), with HLA-B*48:01 (setting [20]) and in the assay with HLA-B*44:02 (setting [20]) was at least 20 µM each time. Further, the Kd with HLA-A*68:02 (source organism: Maporal virus), with HLA-A*29:02 (setting [20]), in the assay with HLA-B*57:01 [11] (setting [20]), with HLA-A*24:03 (source organism: Maporal virus), with HLA-B*15:01 [12] (setting [20]) and with HLA-A*02:01 [13] (setting [20]) was at least 20 µM in each case. For the same sequence, the dissociation constant Kd with HLA-A*31:01 (setting [20]), with HLA-A*02:12 (source organism: Maporal virus), in the assay with HLA-B*07:02 [8] (setting [20]), with HLA-B*27:05 (setting [20]), with HLA-B*18:01 [14] (setting [20]) and with HLA-A*69:01 [15] (setting [20]) was at least 20 µM each time. In addition, the Kd is 0.0457 µM with HLA-B*39:01 [16] (setting [20]); at least 20 µM in the assay with HLA-A*26:01 (setting [20]); at least 20 µM with HLA-B*51:01 (setting [20]); at least 20 µM in the assay with HLA-B*15:17 (setting [20]); at least 20 µM with HLA-B*27:03 (setting [20]).
For the sequence VRDVVMPAL, the dissociation constant (Kd) with HLA-A*01:01 (setting [21]), with HLA-A*03:01 (setting [21]), with HLA-B*46:01 [10] (setting [21]), with HLA-B*58:01 (setting [21]), with HLA-B*48:01 (setting [21]) and with HLA-B*44:02 (setting [21]) was at least 20 µM in each case. For the same sequence, the Kd with HLA-A*29:02 (setting [21]), with HLA-B*57:01 [11] (setting [21]), with HLA-A*11:01, in the assay with HLA-B*15:01 [12] (setting [21]), in the assay with HLA-A*02:01 [13] (setting [21]) and with HLA-A*31:01 (setting [21]) was at least 20 µM in each case. For the same sequence, the Kd was at least 20 µM in the assay with HLA-B*40:01; at least 20 µM in the assay with HLA-B*27:05 (setting [21]); at least 20 µM with HLA-B*18:01 [14] (setting [21]); at least 20 µM with HLA-A*69:01 [15] (setting [21]); 0.0674 µM with HLA-B*39:01 [16] (setting [21]).
YRTATLRTL: the equilibrium dissociation constant (Kd) with HLA-C*06:02 (source organism: human gammaherpesvirus 4) was determined as 0.009 µM.
